“And” between values parts separate entries of the source, which are not always exact repeats. Equal values may be shown once.
Columns and labels:
[1] = molecular target: Mycoplasma penetrans methionyl-tRNA synthetase, full length, M568A (Mycoplasma penetrans); assay: PAGE analysis
[2] = molecular target: Mycoplasma penetrans methionyl-tRNA synthetase, full length, M568A (Mycoplasma penetrans); assay: cryo-EM structure
[3] = molecular target: Mycoplasma penetrans methionyl-tRNA synthetase, full length, M568A (Mycoplasma penetrans); assay: cryo-EM structure; remark: listed apart in the source

stoichiometry N [1]: 2
stoichiometry N [2]: 2
stoichiometry N [3]: 4 and 6
Substance: Mycoplasma penetrans methionyl-tRNA synthetase, full length, M568A (enzyme)
